B1: C971 (antibody, V domains shown)
VH: EVQLVESGGGLVKPGGSLRLSCAASGFTFNNAWMTWVRQAPGKGLEWVGRIKSKTDGGTTDYGTPAKGRFTISRDDSKNTLYLQMKSLRTEDTAVYYCTTVDVQGIWELLENDAFDIWGQGTMVTVSS
VL: EIVLTQSPGTLSLSPGERATLSCRATQAISSTYLAWYQQKPGQAPRLLIYGAFSRAPGIPDRFSGSGSETDFTLTISRLEPEDFAVYYCQQSDRSPFTFGPGTKVDIK
notes: source: 293-6E cells, transfected, purified (Protein G Sepharose)
B2: C022 (antibody, V domains shown)
VH: QVQLQESGPGLVKPSETLSVTCTVSGGSISSSRYYWGWIRQPPGKGLEWIGSIYYSGSTYYNPSLKSRVTISVDTSKNQFSLKLSSVTAADTAVYYCARHAAAYYDRSGYYFIEYFQHWGQGTLVTVSS
VL: DIQMTQSPSTLSASVGDSVTITCRASQSISSWLAWYQQKPGKAPKLLIYKASSLESGVPSRFSGSGSGTEFTLTISSLQPDDFATYYCQQYNNYRYTFGQGTKLEIK
notes: as for B1
B3: B2058 (antibody, V domains shown)
VH: EVQLVESGGGLIQPGGSLRLSCAASGLTVSSNYMSWVRQAPGKGLEWVSVIYPGGSTFYADSVKGRFTISRDNSKNTLYLQLNSLRADDTAVYFCARGDGYTDYYYGLDVWGQGTTVTVSS
VL: DIQLTQSPSSLSASVGDRVTITCRASQSISSYLNWYQQKPGKAPKLLIYAASSLQSGVPSRFSGSGSGTDFTLTISSLQPEDFATYYCQQRGFGQGTKVEIK
notes: as for B1
B4: C1002 (antibody, V domains shown)
VH: EVQLVESGGGLVQPGGSLRLSCAASEFIVSSNYMTWVRQAPGKGLEWVSIMYPGGSTFYADSVKGRFTISRDNSKNTLYLQINRLRAEDTAVYYCARDIAGRLDYWGQGTLVTVSS
VL: DIQMTQSPSSLSASVGDRVTITCQASQDINNYLNWYQQKPGKAPKLLIYDASNLETGVPSRFSGSGSGTDFSFTISSLQPEDIATYYCQQYDNLSRLTFGGGTKVEIK
notes: as for B1
B5: C963 (antibody, V domains shown)
VH: QVQLVQSGAEVKKPGSSVRVSCKASGGTFSSFTITWVRQAPGQGLEWMGRIIPNLNIPNYAQRFQGRITITAEKSTSTAYLELSSLRSEDTAVYYCARGVGYSGSGSNWYFDLWGRGTLVTVSS
VL: QSVLTQPPSVSGAPGQRVTISCTGSSSNIGAGYDVHWYQQLPGTAPKLLISGHINRPSGVPDRFSGSTSGTSASLAITGLQAEDEADYYCQSYDSSLSDSVFGGGTKLTV
notes: as for B1
B6: C099 (antibody, V domains shown)
VH: EVQLVESGGGLIQPGGSLRLSCAASGITVSSNYMSWVRQAPGKGLEWVSVMYAGGSTFYADSVKGRFTISRDDSKNTLFLQMNSLRAEDTAIYYCARDLYSSGGTDIWGQGTMVTVSS
VL: EIVLTQSPGTLSLSPGERATLSCRASQSIGSSYLAWYQQKPGLAPRLLIYGASRRATGIPDKFSGSGSGADFTLTISRLEPEDFAVYYCQQYGSSPGTFGQGTKVEIK
notes: as for B1
B7: C996 (antibody, V domains shown)
VH: EVQLVESGGGLVQPGGSLRLSCVASGFTSTNYDMHWVRQAPGRGLQWVSSIGTAGDTYYPGSVRGRFTISRENAKNSLDLQMNSLRVGDTAVYYCARGQRGYYDRSGYYWGWRAFDIWGQGTMVTVSS
VL: SYELTQPPSVSVAPGQTARITCGGNNIGNKSVYWYQQKPGQAPVLVVYDDSGRPSGIPERFSGSNSANTATLTISRVEAGDEADYYCQVWDNNSDQFGGGTKLTVL
notes: as for B1
B8: B1002 (antibody, V domains shown)
VH: QVQLVQSGAEVKKPGSSVKVTCRASGGTFSNLAISWVRQAPGQGLEWMGSIIPMFTISNYAQKLKGRVTITADKSTSTAYMELSSLRSGDTAVYFCASLGSNITVVRGAPITDHHFHYWGQGTLVTVSS
VL: QSALTQPASVSGSPGQSVTISCTGTSSDVGTYNLVSWYQQHPGKAPKLMIYEVSKRPSGVSNRFSGSKSGNTASLTISGLQAEDEADYYCCSYAASSTTHWVFGGGTKLAV
notes: as for B1
B9: B1037 (antibody, V domains shown)
VH: QVQLVQSGAEVKKPGSSVKVSCKASGDTFISYAITWVRQAPGQGLEWMGRIIPILGVADYAPKFQGRVTITADKSTSTAYMELSSLRSEDTAVFYCASWRGREYNGYDWTGPTRGFDSWGQGTLVTVSS
VL: not shown
notes: as for B1
B10: C1049 (antibody, V domains shown)
VH: EVQLVQSGAEVKKPGESLKISCKSSGYSFISHWIGWVRQMPGKGLEWMGIIWPGDSDTRYSPSFQGQVTISVDKSITTVYLQWSSLKAADTAMYYCARRGSSWEVDYWGQGTLVTVSS
VL: not shown
notes: as for B1
B11: C978 (antibody, V domains shown)
VH: QVQLVQSGAEVKKPGSSVKVSCKASGATFSNYIISWVRQAPGQGLEWMGRTIPLLDIANYAQKFQGRVTITADKSTRIVYMHLGSLTSEDTAVYYCATGKGYSSSSAAYYFDHWGQGTLVTVSS
VL: QSVLTQPPSVSGAPGQRVTISCTGTNSNIGAGYDIHWYQQLPGTAPKLLIYGSNNRPSGVPDRFSGSKSGTSASLAITGLQAEDEADYYCQSYDSSLSGSEVFGGGTKLTVL
notes: as for B1
B12: C1068 (antibody, V domains shown)
VH: QVQLVESGGGVVQPGRSLRLSCAASGFTFSTFAMHWVRQAPGKGLEWVAVTSYDGSNKYYADSVKGRFTISRDNSKNTLYLQMNSLRAEDTAVYYCARGLLWFGESEYFQHWGQGTLVTVSS
VL: not shown
notes: as for B1
B13: B2006 (antibody, V domains shown)
VH: EVQLVQSGAEVKKPGESLKISCKGFGSSFTNYWIGWVRQMPGKGLEWMGSVYAGDSDTRYSPSFQGQVTVSADKSITTAYLQWTSLKASDTAMYFCARASQGNYFDFWGQGTLVTVSS
VL: DIQMTQSPSTLSASVGDRVTITCRASQSISRWLAWYQQKPGKAPKLLIYDASILESGVPSRFSGSGSGTDFTLTISSLQPDDYATYYCQQFYSNLYTFGQGTKLEIK
notes: as for B1
B14: C080 (antibody, V domains shown)
VH: EVQLVQSGAEVKKPGESLNISCKASGYSFTIYWIAWVRQLPGKGLEWMGIIYPGDSDTRYSPSFQGQVTISADKSISTAYLQWRSLKASDSAVYYCARGVAVDWYFDLWGRGTLVTVSS
VL: QSVLTQPPSVSGAPGQRVTISCAGSSSNIGAGFDVYWYQQLPGTAPKLLIYGNNNRPSGVPDRFSGSKSGTSASLAITGLQAEDEADYYCQSSGSVLSDLYVFGTGTKVTVL
notes: as for B1
B15: C1034 (antibody, V domains shown)
VH: QLQLQESGPGLVKPSETLSLTCTVSGGSVSSNNHYWGWIRQPPGKGLEWIGSISSSGSTHHNPSLRSRVTISVDTSKNHFSLKLNSVTATDTAVYYCARVDSSGWYTGDVFDVWGQGTMVTVSS
VL: DIQMTQSPSSLSASVGDRVTITCRASQTINNYLNWYQQKPGKPPKLLIYAAFSLHSGVPSRFSGSRSGTDFTLTISSLQPEDFATYYCQHSYSTMCSFGQGTKLEIK
notes: as for B1
B16: C1047 (antibody, V domains shown)
VH: EVQLVQSGAEVKKPGESLKISCKGSGYSFISYWIVWVRQMPGKGLEWIGIIYPGDSDTIYSPSFQGQVTLSADKSISTAYLQWSSLKASDTAIYYCAKMVTSGTSYYETRGYASSGPFDNWGQGTLVTVSS
VL: DIQLTQSPSSLSASVGDRVTITCRASQGISSALAWYQQKPGKAPKLLIYDASSLESGVPSRFSGSGSGTDFTLTISSLQPEDFATYYCQQSDNFGPGTKVDI
notes: as for B1
B17: B2014 (antibody, V domains shown)
VH: QVQLVQSGAELKRPGASVKVSCKASGYTFSDYHMNWVRQAPGQGLEWMGIINPSGGGASYPQKFQGRVTMTRDTSTSTVFMQLNSLTYEDTAVYYCARGTPPSRGWYGGFDNWGQGTLVTVSS
VL: QSVLTQPPSVSGAPGQRITISCTGSTSNIGAGYDVQWYQQLPGTAPKLLIFDNNNRPSGVPDRFSGSKSGTSASLAITGLQAEDEADYYCQSFDSTLSGSTFVFGPGTKVTVL
notes: as for B1
B18: C118 (antibody, V domains shown)
VH: QVQLVESGGGVVQPGRSLRLSCAASGFTFSNYAMHWVRQAPGKGLEWVAVISYDGSNKYYADSVKGRFTISRDNSKNTLYLQMNSLRAEDTAIYYCASGYTGYDYFVRGDYYGLDVWGQGTTVTVSS
VL: QPVLTQSPSASASLGASVKLTCTLSSGHSSYAIAWHQQQPEKGPRYLMKLNTDGSHSKGDGIPDRFSGSSSGAERYLTISSLQSEDEADYYCQTWGTGILVFGGGTKLTVL
notes: as for B1
B19: C2593 (antibody, V domains shown)
VH: QVQLVQSGAEVKKPGSSVKVSCKASGGTFNSYAITWVRQAPGQGLEWMGGIIFIFDTANYAQKFQGRVTITADESTSTVYMELSSLRSEDTAVYYCARPGAELRDHYYYYGMDVWGQGTTVTVSS
VL: DIVMTQSPLSLPVTPGEPASISCRSTQSLLHSNGNNYLDWYLQKPGQSPQLLIYLASNRAPGVPDRFSGSGSGTDFTLRISRVEAEDVGVYYCMQALQTPPTFGQGTRLEIK
notes: as for B1
B20: B1032 (antibody, V domains shown)
VH: EVQLVESGGGLVQPGRSLRLSCEASGFTFEDFAMHWVRQAPGKGLEWVSGVSWNSGTIGYGDSVKGRFIIIRDNAKNSVYLQMNSLRPEDTAFYYCVKDMATYYKDISGTYGMDVWGQGTTVTVSS
VL: SYELTQTPSVSVAPGQTARITCVGNNIGSESVHWYQQKSGRAPVLVVYDDSDRPSGIPERFSGSTSGTTATLIINRVEAGDEAGYYCQVWDASSDHVVFGGGTKLTVL
notes: as for B1
B21: C2488 (antibody, V domains shown)
VH: QVQLVESGGGVVQPGRSLRLSCAASGFTFSTHGMHWVRQAPGKGLEWMAVIYFDGSNKYYADSVKGRFAISRDNSKNTLFLQMNSLRADDTAVYHCATNSAGYGDSYETFDIWGQGTMVSVSS
VL: EIVMTQSPATLSVSPGERATLSCRASHSVGTNLAWYQQKPGQAPRLLIYGAFTRAAGISARFSGSGSGTEFTLTISSLQSEDLAVYYCQQYENWPPYTFGQGTKLEIK
notes: as for B1
B22: C1040 (antibody, V domains shown)
VH: QVQLVESGGGVVQPGRSLRLSCAASGFSFINYNMHWVRQAPGKGLEWVAVIWYDGSNKYYADSVKGRFTISRDNSKNTLYLQMNSLRVEDTAVYYCARDPAITEAEIDYWGQGTLVTVSS
VL: DVVMTQSPLSLPVTLGQAASISCRSSQSLVHSDGNTYLNWFQQRPGQSPRRLIYRVSNRDSGVPDRFSASGSGTDFTLKISRVEAEDVGVYYCMQGTHWPWTFGQGTKVEIK
notes: as for B1
B23: B1030 (antibody, V domains shown)
VH: QVQLVQSGAEVKKPGASVRVSCKASGYTFTSYYMHWVRQAPGQGLEWMGIINPSDGGASYAQKFQGRVTMTSDTSTSTVYMELSSLRSEDTAVYYCARALRHHSSGWYSALDFQHWGQGTLVTVSS
VL: not shown
notes: as for B1

Target: WT RBD (SARS-CoV-2 Wuhan-Hu-1 spike receptor binding domain) (SARS-CoV-2 (Wuhan-Hu-1), UniProt P0DTC2)
Assay: BLI
Details: both partners purified

Row | Binder | Kd [nM]
1 | B1 | 0.949
2 | B2 | 3.15
3 | B3 | 1.02
4 | B4 | 0.441
5 | B5 | 0.653
6 | B6 | 0.00214
7 | B7 | 3.72
8 | B8 | 0.732
9 | B9 | 3.21
10 | B10 | 2.35
11 | B11 | 1.33
12 | B12 | 28.8
13 | B13 | 0.582
14 | B14 | 0.286
15 | B15 | 1.98
16 | B16 | 4.99
17 | B17 | 1.24
18 | B18 | 2.66
19 | B19 | 1.37
20 | B20 | 0.52
21 | B21 | 8.95
22 | B22 | 2.08
23 | B23 | 5.06

Reference: publication PMC9849103 (Nature Communications, 2023)
